Test results reported in patent US20220290132.

Target: SpCas9 nuclease (Streptococcus pyogenes) (UniProt Q99ZW2)
Experiment: EMSA
Settings: 30 nM Cas9, 30 nM RNA, NEBuffer 3.1, 25 C then 37 C; negative control

UniProt Q99ZW2, sequence (Q99ZW2 whole entry): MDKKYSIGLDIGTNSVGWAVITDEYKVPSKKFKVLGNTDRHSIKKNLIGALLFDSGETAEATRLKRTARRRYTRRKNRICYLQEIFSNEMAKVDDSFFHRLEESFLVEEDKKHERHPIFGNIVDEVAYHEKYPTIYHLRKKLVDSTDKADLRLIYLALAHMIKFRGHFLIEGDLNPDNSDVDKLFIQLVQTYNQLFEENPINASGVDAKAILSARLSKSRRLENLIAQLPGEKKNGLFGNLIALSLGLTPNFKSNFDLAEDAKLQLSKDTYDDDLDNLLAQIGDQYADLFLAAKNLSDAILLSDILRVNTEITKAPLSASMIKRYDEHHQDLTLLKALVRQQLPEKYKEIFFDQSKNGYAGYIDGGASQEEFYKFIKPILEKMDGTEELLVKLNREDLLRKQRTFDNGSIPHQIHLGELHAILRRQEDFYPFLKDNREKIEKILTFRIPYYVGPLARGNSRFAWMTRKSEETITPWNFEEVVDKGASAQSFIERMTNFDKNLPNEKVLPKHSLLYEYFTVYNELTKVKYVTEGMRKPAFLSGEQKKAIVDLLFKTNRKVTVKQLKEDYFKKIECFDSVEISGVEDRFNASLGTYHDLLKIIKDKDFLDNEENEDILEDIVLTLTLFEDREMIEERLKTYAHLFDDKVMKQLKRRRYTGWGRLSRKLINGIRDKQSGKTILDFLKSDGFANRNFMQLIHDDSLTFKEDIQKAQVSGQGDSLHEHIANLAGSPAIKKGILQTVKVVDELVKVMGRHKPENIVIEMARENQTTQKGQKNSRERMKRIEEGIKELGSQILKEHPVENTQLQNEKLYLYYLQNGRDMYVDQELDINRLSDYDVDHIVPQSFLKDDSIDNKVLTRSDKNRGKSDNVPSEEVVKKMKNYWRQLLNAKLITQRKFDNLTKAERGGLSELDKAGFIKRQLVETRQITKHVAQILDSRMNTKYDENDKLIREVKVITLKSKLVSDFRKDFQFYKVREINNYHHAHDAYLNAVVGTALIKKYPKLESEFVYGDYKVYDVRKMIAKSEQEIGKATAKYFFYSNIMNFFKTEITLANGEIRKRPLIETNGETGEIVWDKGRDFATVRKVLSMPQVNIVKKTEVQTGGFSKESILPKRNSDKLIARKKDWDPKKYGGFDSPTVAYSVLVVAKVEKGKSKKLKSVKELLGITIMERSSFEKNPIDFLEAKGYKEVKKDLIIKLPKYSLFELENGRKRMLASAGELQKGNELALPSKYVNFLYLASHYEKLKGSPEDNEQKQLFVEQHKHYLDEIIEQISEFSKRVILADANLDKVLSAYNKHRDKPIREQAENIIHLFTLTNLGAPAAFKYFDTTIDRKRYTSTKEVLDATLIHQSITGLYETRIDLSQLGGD

## non-CRISPR structured RNA negative control
  binding signal: 55 % bound
